Source: PMC3308894
“And” between values parts separate entries of the source, which are not always exact repeats. Equal entries are not always repeated. One block for each substance: values may come before it.

What was measured:
Assay in all cases: other fluorescence titration
[1] = target: 207-bp linker DNA-containing nucleosome (Nuc207) (Xenopus laevis)
[2] = target: tri-nucleosome array LE (linker-ended), 621-bp DNA (Xenopus laevis)
[3] = target: histone H2A-H2B complex, fluorescently labeled (Xenopus laevis) (UniProt P06897)
[4] = target: an individual nucleosome, whether mono or as part of an array
[5] = target: 147-bp nucleosome, which contains no linker DNA (Nuc147) (Xenopus laevis)
[6] = target: tail-less histone H2A-H2B complex, fluorescently labeled (Xenopus laevis) (UniProt P06897)
[7] = target: tri-nucleosome array NLE (nonlinker-ended), 561-bp DNA (Xenopus laevis)
[8] = target: histone H3-H4 complex, fluorescently labeled (Xenopus laevis) (UniProt P84233)

Kd [1]: 22 nM | Kd [2]: 26 nM | stoichiometry N (FACT:tri-nucleosome) [2]: 3.3 | Kd [3]: 31 nM | stoichiometry N (FACT molecules per nucleosome) [4]: 1 and 2 | Kd [5]: 64 nM | fold lower affinity than for tail-containing H2A-H2B [6]: 7 fold | Kd [7]: 36 nM | stoichiometry N (FACT:tri-nucleosome) [7]: 2.4
Substance: FACT (facilitates chromatin transcription) complex, full-length, de-phosphorylated (from UniProt Q9Y5B9;Q08945)

fold less affinity than FACT [1]: 20 fold | fold less affinity than SSRP1 alone [1]: 7 fold | fold increase of Kd(app) against full-length FACT [3]: 6 fold | Kd [8]: > 1000 nM
Substance: FACTΔCTD (Spt16 acidic C-terminal domain truncation + SSRP1) (from UniProt Q9Y5B9;Q08945) (complex)

Kd [1]: 67 nM | Kd [5]: > 1000 nM
Substance: SSRP1 (structure-specific recognition protein 1) subunit of FACT (from UniProt Q08945 1-709) (natural protein)

Kd [3]: 85 nM
Substance: Spt16 (Suppressor of ty 16) subunit of FACT (from UniProt Q9Y5B9 1-1047) (natural protein)
